Assay results taken from patent US5179196A, “Purification of proteins employing CTAP-III fusions” (SRI International, priority 1989, dated 1993).
Read-outs that look alike come from different tables or passages of the source.

What was measured:
[1] = Isoelectric point (pI); format: physicochemical
[2] = target: T1, thrombin (Homo sapiens, UniProt P00734); details: E. coli, cited from earlier work
[3] = target: T1, thrombin; test: Specific activity of recombinant hirudin (antithrombin activity), applicant's hirudin; format: biochemical
Text: There are a number of activity assays developed to determine the quality of hirudin preparations and for use in quantitating hirudin in various biochemical and pharmacological experiments. Two of these methods have been refined herein and may be used routinely and reproducibly. The first, a chromogenic substrate assay measures the inhibition by hirudin of thrombin's ability to hydrolyze small synthetic peptide substrates. The second, a fibrin-clotting assay, measures the kinetics of clot formation, using either human plasma or purified fibrinogen as the thrombin substrate.
In the chromogenic assay, antithrombin activity is achieved by measuring the inhibition of release of p-nitroaniline from the chromogenic substrate H-D-phenylalanyl-L-pipecolyl-L-arginine-p-nitroanilide dihydrochloride (S-2238, supplied by Kabivitrum) by thrombin in the presence of hirudin. Thrombin concentration is 2 nM (typically 0.12 NIH units/ml), and hirudin can be assayed reproducibly at an approximate concentration range of 0.3 to 1 nM, using 296 uM substrate in 50 mM Tris buffer, 100 mM NaCl, pH 7.8, and 0.1% polyethylene glycol-6000 (PEG). PEG is included to inhibit binding of thrombin to the plastic surface of the microplate or cuvette; for the same reason, reaction vessels are pretreated with 1% PEG-20,000 prior to assay.
Hirudin inhibits the thrombin-mediated conversion of fibrinogen into a fibrin clot. […]

[4] = system: B16/F10 cells (murine melanoma); test: Cell adhesion assay, tumor cells binding to peptide-coated wells; format: cell-based; details: summary of Table 2
Text: One of the assays used to measure the activity of the laminin B1 peptide measures the binding of tumor cells containing the laminin receptor to the peptide immobilized on the surface of a culture tissue (Graf et al (1987) Cell 48:989-996). This assay is a convenient and sensitive method for routine measurement of laminin cell receptor binding and therefore a good indicator of laminin antagonist activity.
The laminin B1 -40 peptide, along with the previously described YIGSR and CDPGYIGSR peptides, were dissolved in phosphate-buffered saline (PBS) and were coated onto Falcon #3915 polystyrene 96-well plates at 37° C. for 60 min. The peptide solutions were removed, and the wells were washed twice with PBS. Non-specific cell binding was prevented by adding 200 ul 0.1% bovine serum albumin (BSA) (Sigma #4965) in PBS to the wells and incubating for 60 min at 37° C. The BSA was removed by washing twice with PBS. […] The optical density of the solutions was read on a Molecular Devices Corporation plate reader at a wavelength between 590 nm and 405 nm. Extrapolation of optical density to number of cells bound was done by comparison of readings to a standard curve obtained by incubating various numbers of cells in microtiter plate wells for 5 h (to allow firm attachment but no significant dividing), and washing and staining as described above.

Row | Molecule | pI (isoelectric point) [1] | Sp. Act. ([2]; pMF1, lacUV5/tac, intracellular) | Sp. Act. ([2]; IU, international units, pHIR20 lam-PL, intracellular) [U/mg] | Sp. Act. ([2]; IU, international units, pHIR21 tac, periplasmic secretion) [U/mg] | Sp. Act. ([3]; AT (antithrombin units), E. coli, pNP6ΔRI-CRM/HIR, intracellular (Example 4)) | specific activity ([3]; purified hirudin HV-1 standard) | binding of metastatic tumor cells compared with YIGSR or CDPGYIGSR (in words) [4]
1 | HV-1: hirudin variant 1, thrombin inhibitor of Hirudo medicinalis, produced from a synthetic DNA | 3.8 | 8,500 U/mg | 500 | 560 | 11,300 U/mg | greater than 10 antithrombin units per ug | –
2 | Pro1 -Cys Pro Asp Gly Pro Asp Ser Gly Arg Gln Phe Ala Arg Ser Cys Tyr Gln Asp Pro Val Thr Leu Gln Leu Ala X Val Cys Asp Pro Gly Tyr Ile Gly Ser Arg Cys Asp Asp-Y [LamB1 -40] | 3.65 | – | – | – | – | – | binds metastatic tumor cells more effectively
3 | CTAP-III(Leu21): analog of CTAP-III in which the methionine at position 21 is replaced with leucine (protein, UniProt P02775 44-128, looked up, variant M21L, Connective tissue-activating peptide III) Connective tissue-activating …: NLAKGKEESLDSDLYAELRCLCIKTTSGIHPKNIQSLEVIGKGTHCNQVEVIATLKDGRKICLDPDAPRIKKIVQKKLAGDESAD | approximately 7.8 | – | – | – | – | – | –
